The test has as its target T1, hIL-11R (Homo sapiens, UniProt Q14626).
T1 sequence (Q14626 23-422): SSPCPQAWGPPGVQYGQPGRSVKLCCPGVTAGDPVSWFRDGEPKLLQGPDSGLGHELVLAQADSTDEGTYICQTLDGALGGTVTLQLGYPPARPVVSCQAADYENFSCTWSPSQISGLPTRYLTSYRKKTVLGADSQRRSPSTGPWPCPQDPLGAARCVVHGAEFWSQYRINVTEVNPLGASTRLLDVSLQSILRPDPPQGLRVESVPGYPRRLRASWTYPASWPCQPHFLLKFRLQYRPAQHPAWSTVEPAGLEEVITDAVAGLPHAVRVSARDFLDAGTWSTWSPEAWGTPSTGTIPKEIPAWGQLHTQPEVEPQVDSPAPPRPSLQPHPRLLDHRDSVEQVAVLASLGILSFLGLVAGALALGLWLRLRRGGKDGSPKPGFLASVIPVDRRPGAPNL
Briefly: Alternate biolayer interferometry assay (AHC biosensors) ranking mAbs 16-32 against mAb5. Type of test: binding. Conditions: for ka / kd: AHC biosensors; for qualitative assessment: compared to mAb5 (comparator). The text has this: A further series of antibodies were designed in which the residue at Kabat position 31 of the heavy chain was varied (mAbs 16-32). In this case an alternate biolayer interferometry assay was used to initially rank the antibodies compared to mAb5, the closest relative in sequence to mAbs 16-32. MAbs were loaded onto anti-human constant domain (AHC) biosensors (FortéBio) in 10×kinetics buffer consisting of PBS, 0.1% BSA, 0.02% polysorbate 20 (TWEEN™) for 120 s to achieve a spectral shift value of 0.8 to 1.2 nm. Association was carried out in the presence of 2-fold dilution series of hIL-11R and was allowed to proceed for 120 s. Dilution series started 10 nM. The dissociation in 10×kinetics buffer for 1200 s. Binding kinetic measurements were taken on an Octet RED96e instrument.
Background: Biolayer interferometry detects binding as a change in optical thickness at a sensor tip.

Where a chain is given by its changes, count along the chain named. Names may count otherwise.

B1: mAb21: anti-IL-11Rα antibody, human IgG4 (S228P), kappa; VH SEQ ID NO: 233, VL SEQ ID NO: 234 (antibody, V domains shown)
VH: EVQLLESGGGLVQPGGSLRLSCAASGFTFSHYSMTWVRQAPGKGLEWVSSIVPYGDLTQYADSVKGRFTISRDNSKNTLYLQMNSLRAEDTAVYYCAKGPGWGSFDLWGRGTLVTVSS
VL: DIQMTQSPSSLSASVGDRVTITCQASQDINNYLNWYQQKPGKAPKLLIYDASNLQTGVPSRFSGSGSGTDFTFTISSLQPEDIATYYCQQHESQSPTFGPGTKVDIK
modifications: IgG4 S228P kappa constant regions; mAb21 VH Chain; mAb21 VL Chain
As for B1, the ka stood at 750000 M⁻¹ s⁻¹, the kd entry is recorded as “off-scale”, the “potency compared to mAb5 by more detailed kinetic measurements (in words)” value (“potency compared to mAb5” for short) is “further improved potency” and the qualitative assessment entry was “improved/”.

B2: mAb24: anti-IL-11Rα antibody, human IgG4 (S228P), kappa; VH SEQ ID NO: 239, VL SEQ ID NO: 240 (antibody, V domains shown)
VH: B1 VH with H31L
VL: B1 VL
modifications: IgG4 S228P kappa constant regions; mAb24 VH Chain; mAb24 VL Chain
Take B2: the qualitative assessment entry is on record as “similar”.

B3: mAb31: anti-IL-11Rα antibody, human IgG4 (S228P), kappa; VH SEQ ID NO: 253, VL SEQ ID NO: 254 (antibody, V domains shown)
VH: B1 VH with H31V
VL: B1 VL
modifications: IgG4 S228P kappa constant regions; mAb31 VH Chain; mAb31 VL Chain
Regarding B3, the ka was determined as 690000 M⁻¹ s⁻¹, the kd entry is listed as “off-scale”, the “potency compared to mAb5” value is listed as “further improved potency” and the qualitative assessment result is “improved/”.

B4: mAb25: anti-IL-11Rα antibody, human IgG4 (S228P), kappa; VH SEQ ID NO: 241, VL SEQ ID NO: 242 (antibody, V domains shown)
VH: B1 VH with H31M
VL: B1 VL
modifications: IgG4 S228P kappa constant regions; mAb25 VH Chain; mAb25 VL Chain
For B4, the qualitative assessment entry is on record as “similar”.

B5: mAb32: anti-IL-11Rα antibody, human IgG4 (S228P), kappa; VH SEQ ID NO: 255, VL SEQ ID NO: 256 (antibody, V domains shown)
VH: B1 VH with H31Y
VL: B1 VL
modifications: IgG4 S228P kappa constant regions; mAb32 VH Chain; mAb32 VL Chain
Turning to B5, the qualitative assessment entry was “similar”.

B6: mAb19: anti-IL-11Rα antibody, human IgG4 (S228P), kappa; VH SEQ ID NO: 229, VL SEQ ID NO: 230 (antibody, V domains shown)
VH: B1 VH with H31F
VL: B1 VL
modifications: IgG4 S228P kappa constant regions; mAb19 VH Chain; mAb19 VL Chain
As for B6, the qualitative assessment result was “similar”.

B7: mAb23: anti-IL-11Rα antibody, human IgG4 (S228P), kappa; VH SEQ ID NO: 237, VL SEQ ID NO: 238 (antibody, V domains shown)
VH: B1 VH with H31K
VL: B1 VL
modifications: IgG4 S228P kappa constant regions; mAb23 VH Chain; mAb23 VL Chain
Turning to B7, the ka amounted to 720000 M⁻¹ s⁻¹, the kd result is “off-scale”, the “potency compared to mAb5” value is “further improved potency” and the qualitative assessment entry was “improved/”.

B8: mAb17: anti-IL-11Rα antibody, human IgG4 (S228P), kappa; VH SEQ ID NO: 225, VL SEQ ID NO: 226 (antibody, V domains shown)
VH: B1 VH with H31D
VL: B1 VL
modifications: IgG4 S228P kappa constant regions; mAb17 VH Chain; mAb17 VL Chain
With B8, the qualitative assessment entry is “decreased”.

B9: mAb30: anti-IL-11Rα antibody, human IgG4 (S228P), kappa; VH SEQ ID NO: 251, VL SEQ ID NO: 252 (antibody, V domains shown)
VH: B1 VH with H31T
VL: B1 VL
modifications: IgG4 S228P kappa constant regions; mAb30 VH Chain; mAb30 VL Chain
Consider B9, for which the qualitative assessment entry is on record as “decreased”.

B10: mAb26: anti-IL-11Rα antibody, human IgG4 (S228P), kappa; VH SEQ ID NO: 243, VL SEQ ID NO: 244 (antibody, V domains shown)
VH: B1 VH with H31N
VL: B1 VL
modifications: IgG4 S228P kappa constant regions; mAb23 VH Chain; mAb26 VL Chaim
B10: the qualitative assessment result is on record as “decreased”.

B11: mAb29: anti-IL-11Rα antibody, human IgG4 (S228P), kappa; VH SEQ ID NO: 249, VL SEQ ID NO: 250 (antibody, V domains shown)
VH: B1 VH with H31S
VL: B1 VL
modifications: IgG4 S228P kappa constant regions; mAb29 VH Chain; mAb29 VL Chain
As to B11, the ka stood at 610000 M⁻¹ s⁻¹, the kd was 1.8e-05 s⁻¹, the “potency compared to mAb5” value is on record as “further improved potency” and the qualitative assessment result is listed as “improved/”.

B12: mAb27: anti-IL-11Rα antibody, human IgG4 (S228P), kappa; VH SEQ ID NO: 245, VL SEQ ID NO: 246 (antibody, V domains shown)
VH: B1 VH with H31P
VL: B1 VL
modifications: IgG4 S228P kappa constant regions; mAb27 VH Chain; mAb27 VL Chain
B12: the qualitative assessment entry is given as “decreased”.

B13: mAb28: anti-IL-11Rα antibody, human IgG4 (S228P), kappa; VH SEQ ID NO: 247, VL SEQ ID NO: 248 (antibody, V domains shown)
VH: B1 VH with H31R
VL: B1 VL
modifications: IgG4 S228P kappa constant regions; mAb28 VH Chain; mAb28 VL Chain
Consider B13, for which the qualitative assessment entry is reported as “similar”.

B14: mAb20: anti-IL-11Rα antibody, human IgG4 (S228P), kappa; VH SEQ ID NO: 231, VL SEQ ID NO: 232 (antibody, V domains shown)
VH: B1 VH with H31G
VL: B1 VL
modifications: IgG4 S228P kappa constant regions; mAb20 VH Chain; mAb20 VL Chain
On to B14, for which the qualitative assessment entry is recorded as “similar”.

B15: mAb18: anti-IL-11Rα antibody, human IgG4 (S228P), kappa; VH SEQ ID NO: 227, VL SEQ ID NO: 228 (antibody, V domains shown)
VH: B1 VH with H31E
VL: B1 VL
modifications: IgG4 S228P kappa constant regions; mAb18 VH Chain; mAb18 VL Chain
With B15, the qualitative assessment entry is reported as “decreased”.

B16: mAb22: anti-IL-11Rα antibody, human IgG4 (S228P), kappa; VH SEQ ID NO: 235, VL SEQ ID NO: 236 (antibody, V domains shown)
VH: B1 VH with H31I
VL: B1 VL
modifications: IgG4 S228P kappa constant regions; mAb22 VH Chain; mAb22 VL Chain
B16: the qualitative assessment entry is reported as “similar”.

B17: mAb16: anti-IL-11Rα antibody, human IgG4 (S228P), kappa; VH SEQ ID NO: 223, VL SEQ ID NO: 224 (antibody, V domains shown)
VH: B1 VH with H31A
VL: B1 VL
modifications: IgG4 S228P kappa constant regions; mAb16 VH Chain; mAb16 VL Chain
Regarding B17, the qualitative assessment entry was “similar”.

The values above are taken from patent US12365738B2, “Method of treating an interleukin-11-associated or -mediated fibrotic disease or condition by administering an anti-interleukin-11 receptor subunit alpha (IL-11RA) antibody” (Lassen Therapeutics, Inc., priority 2021, dated 2025).
